Laboratory results reported in patent publication US5827710, “DNA encoding the subunit of avian lactate dehydrogenase” (Oriental Yeast Co., Ltd., dated 1998).

Target: the molecule itself
Assay: gel filtration column chromatography (SMART system) of the purified recombinant protein: about 147,000 found, against about 36,000 calculated for each subunit
Text: 3) Determination of the molecular weight of the recombinant chicken LDH-B₄ protein As a result of gel filtration column chromatography analysis of the purified sample by a SMART system (made by Pharmacia), the molecular weight of the purified recombinant chicken LDH-B₄ protein was about 147,000 (FIG. 10). It is presumed that the subunits B of chicken LDH are combined to form a tetramer (theoretical molecular weight of about 140,000) because the molecular weight of each subunit B of chicken LDH is calculated at about 36,000 from its amino acid sequence.

B1: type B subunit of chicken lactate dehydrogenase (recombinant, expressed in Saccharomyces cerevisiae from YRp1G-cLD-B) (enzyme)
chain: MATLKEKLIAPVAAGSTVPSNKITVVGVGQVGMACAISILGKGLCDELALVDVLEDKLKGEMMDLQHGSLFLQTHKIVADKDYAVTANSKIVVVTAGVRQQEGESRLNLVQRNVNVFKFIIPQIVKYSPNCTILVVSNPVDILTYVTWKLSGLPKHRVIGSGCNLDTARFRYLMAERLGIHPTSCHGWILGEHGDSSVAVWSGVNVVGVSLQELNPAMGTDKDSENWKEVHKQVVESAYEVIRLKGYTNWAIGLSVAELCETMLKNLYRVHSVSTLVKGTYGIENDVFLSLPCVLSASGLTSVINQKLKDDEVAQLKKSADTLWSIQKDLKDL
Does B1 bind?
Result: binds
